{
  "source": "paper PMC4990751",
  "about": "(Molecules and Cells, 2016)",
  "proteins": {"B1": {"name": "T105C-PaAhpC (enzyme, Pseudomonas aeruginosa PAO1, UniProt Q9I6Z3 1-187, looked up)", "chain": "MSLINTQVQPFKVNAFHNGKFIEVTEESLKGKWSVLIFMPAAFTFNCPTEIEDAANNYGEFQKAGAEVYIVTTDTHFSHKVWHETSPAVGKAQFPLIGDPTHQLCNAFGVHIPEEGLALRGTFVINPEGVIKTVEIHSNEIARDVGETVRKLKAAQYTAAHPGEVCPAKWKEGEKTLAPSLDLVGKI"}},
  "biological_target": "the molecule itself",
  "test": "SEC",
  "data": [
    {"protein": "B1", "values": [
      {"measurement": "stoichiometry N", "result": 10}
    ]}
  ]
}
